{"source": "paper PMC7366829", "about": "(Acta biomaterialia, 2020)", "molecular_target": "the molecule itself", "assay": "SEC-MALS"}
{"protein": "BOR1 from Arabidopsis thaliana (AtBOR1), purified in DDM, GFP-8His tag cleaved (natural protein) not shown", "values": [{"measurement": "stoichiometry N", "result": 2}]}
